Data published in US20220372112A1 (KEYMED BIOSCIENCES, published 2022).

T1: human Claudin 18.2 (human, UniProt P56856-2 1-261)
T1 construct: whole, on cells
T1 sequence (looked up): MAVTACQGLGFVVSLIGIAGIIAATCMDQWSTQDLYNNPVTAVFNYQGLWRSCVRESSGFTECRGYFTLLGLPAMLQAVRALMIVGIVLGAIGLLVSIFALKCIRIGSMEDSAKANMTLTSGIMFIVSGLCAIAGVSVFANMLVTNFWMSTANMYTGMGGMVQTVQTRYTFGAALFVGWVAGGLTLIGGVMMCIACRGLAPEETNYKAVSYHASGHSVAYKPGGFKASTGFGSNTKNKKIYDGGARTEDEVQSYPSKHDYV

B1: h18A9.v16 (antibody, V domains shown)
VH: QVQLVQSGAEVKKPGASVKVSCKPSGYAFTNYLIDWVRQAPGQGLEWMGGINPGSGDTVYNEKFQGRVTLTADKSSSTAYMELSSLRSEDTAVYFCARRVRGNSFDSWGQGTLVTVSS
VL: DIVMTQSPDSLAVSLGERATINCKSSQSLLNSGNQKNYLTWYQQKPGQPPKLLIYWASTRESGVPDRFSGSGSGKDFTLTISSLQAEDVAVYYCQNNYFYPLTFGGGTKVEIK
notes: Humanized; also called 18A9VLv1 + 18A9VHv6
B2: h18A9.v17 (antibody, V domains shown)
VH: QVQLVQSGAEVKKPGASVKVSCKPSGYTFTNYLIDWVRQAPGQGLEWMGGINPGSGDTVYNEKFQGRVTLTADTSTSTVYMELSSLRSEDTAVYFCARRVRGNSFDSWGQGTLVTVSS
VL: DIVMTQSPDSLAVSLGERATINCKSSQSLLNSGNQKNYLTWYQQKPGQPPKLLIYWASTRESGVPDRFSGSGSGKDFTLTISSLQAEDVAVYYCQNNYFYPLTFGGGTKVEIK
notes: Humanized; also called 18A9VLv1 + 18A9VHv7
B3: h18A9.v21 (antibody, V domains shown)
VH: QVQLVQSGAEVKKPGSSVKVSCKPSGYAFTNYLIDWVRQAPGQGLEWMGGINPGSGDTVYNEKFQGRVTLTADKSSMTAYMELSSLRSEDTAVYFCARRVRGNSFDSWGQGTLVTVSS
VL: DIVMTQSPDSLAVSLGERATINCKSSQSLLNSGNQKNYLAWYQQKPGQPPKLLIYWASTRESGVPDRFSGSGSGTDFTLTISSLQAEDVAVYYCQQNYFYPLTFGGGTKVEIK
notes: Humanized; also called 18A9VLv2 + 18A9VHv1
B4: h18A9.v22 (antibody, V domains shown)
VH: QVQLVQSGAEVKKPGSSVKVSCKPSGYTFTNYLIDWVRQAPGQGLEWMGGINPGSGDTVYNEKFQGRVTLTADESTSTAYMELSSLRSEDTAVYFCARRVRGNSFDSWGQGTLVTVSS
VL: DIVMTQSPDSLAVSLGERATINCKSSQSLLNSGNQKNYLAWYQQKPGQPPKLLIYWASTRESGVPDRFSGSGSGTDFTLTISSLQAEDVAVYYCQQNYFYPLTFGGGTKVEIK
notes: Humanized; also called 18A9VLv2 + 18A9VHv2
B5: h18A9.v23 (antibody, V domains shown)
VH: QVQLVQSGAEVKKPGSSVKVSCKPSGYTFTNYLIDWVRQAPGQGLEWMGGINPGSGDTVYNEKFQGRVTLTADKSSMTAYMELSSLRSEDTAVYYCARRVRGNSFDSWGQGTLVTVSS
VL: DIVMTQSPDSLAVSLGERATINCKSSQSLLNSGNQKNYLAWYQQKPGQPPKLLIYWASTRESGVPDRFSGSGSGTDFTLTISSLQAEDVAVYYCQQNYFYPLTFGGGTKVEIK
notes: Humanized; also called 18A9VLv2 + 18A9VHv3
B6: h18A9.v24 (antibody, V domains shown)
VH: QVQLVQSGAEVKKPGSSVKVSCKASGYTFTNYLIDWVRQAPGQGLEWMGGINPGSGDTVYNEKFQGRVTLTADKSSMTAYMELSSLRSEDTAVYFCARRVRGNSFDSWGQGTLVTVSS
VL: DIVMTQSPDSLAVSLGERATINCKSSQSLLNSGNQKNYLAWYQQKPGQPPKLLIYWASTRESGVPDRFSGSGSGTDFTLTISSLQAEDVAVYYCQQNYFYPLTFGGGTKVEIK
notes: Humanized; also called 18A9VLv2 + 18A9VHv4
B7: h18A9.v25 (antibody, V domains shown)
VH: QVQLVQSGAEVKKPGSSVKVSCKPSGYTFTNYLIDWVRQAPGQGLEWMGGINPGSGDTVYNEKFQGRVTITADESTSTAYMELSSLRSEDTAVYFCARRVRGNSFDSWGQGTLVTVSS
VL: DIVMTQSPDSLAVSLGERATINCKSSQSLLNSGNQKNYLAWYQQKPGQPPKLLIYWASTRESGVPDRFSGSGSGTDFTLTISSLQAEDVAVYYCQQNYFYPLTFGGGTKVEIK
notes: Humanized; also called 18A9VLv2 + 18A9VHv5
B8: h18A9.v26 (antibody, V domains shown)
VH: QVQLVQSGAEVKKPGASVKVSCKPSGYAFTNYLIDWVRQAPGQGLEWMGGINPGSGDTVYNEKFQGRVTLTADKSSSTAYMELSSLRSEDTAVYFCARRVRGNSFDSWGQGTLVTVSS
VL: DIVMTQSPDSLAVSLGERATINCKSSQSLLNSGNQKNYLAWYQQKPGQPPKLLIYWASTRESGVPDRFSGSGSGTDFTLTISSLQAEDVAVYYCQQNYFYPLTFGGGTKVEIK
notes: Humanized; also called 18A9VLv2 + 18A9VHv6
B9: h18A9.v27 (antibody, V domains shown)
VH: QVQLVQSGAEVKKPGASVKVSCKPSGYTFTNYLIDWVRQAPGQGLEWMGGINPGSGDTVYNEKFQGRVTLTADTSTSTVYMELSSLRSEDTAVYFCARRVRGNSFDSWGQGTLVTVSS
VL: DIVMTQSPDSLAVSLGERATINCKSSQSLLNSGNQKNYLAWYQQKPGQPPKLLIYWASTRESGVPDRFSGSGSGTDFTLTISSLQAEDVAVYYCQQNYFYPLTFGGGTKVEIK
notes: Humanized; also called 18A9VLv2 + 18A9VHv7
B10: 18D10.V13 (antibody, V domains shown)
VH: QVQLQESGPGLVKPSETLSLTCTVSGGSISSNYAWNWIRQPPGKGLEWIGYINYSGNTNYNPSLKSRVTISRDTSKNQFSLKLSSVTAADTAVYYCATSYYGNSFIYWGQGTLVTVSS
VL: DIVMTQSPDSLAVSLGERATINCKSSQSLLNSGNQKNYLTWYQQKPGQPPKLLIYWASTRESGVPDRFSGSGSGTDFTLTISSLQAEDVAVYYCQNAYSFPWTFGQGTKVEIK
notes: Humanized; also called 18D10VLv1 + 18D10VHv3
B11: 18D10.V11 (antibody, V domains shown)
VH: QVQLQESGPGLVKPSETLSLTCTVSGYSITSNYAWNWIRQPPGKGLEWIGYINYSGNTNYNPSLKSRVTISRDTSKNQFSLKLSSVTAADTAVYYCATSYYGNSFIYWGQGTLVTVSS
VL: DIVMTQSPDSLAVSLGERATINCKSSQSLLNSGNQKNYLTWYQQKPGQPPKLLIYWASTRESGVPDRFSGSGSGTDFTLTISSLQAEDVAVYYCQNAYSFPWTFGQGTKVEIK
notes: Humanized; also called 18D10VLv1 + 18D10VHv1
B12: 18D10.V12 (antibody, V domains shown)
VH: QVQLQESGPGLVKPSETLSLTCTVSGGSISSNYAWNWIRQPPGKGLEWMGYINYSGNTNYNPSLKSRITISRDTSKNQFSLKLSSVTAADTAVYYCATSYYGNSFIYWGQGTLVTVSS
VL: DIVMTQSPDSLAVSLGERATINCKSSQSLLNSGNQKNYLTWYQQKPGQPPKLLIYWASTRESGVPDRFSGSGSGTDFTLTISSLQAEDVAVYYCQNAYSFPWTFGQGTKVEIK
notes: Humanized; also called 18D10VLv1 + 18D10VHv2
B13: 18D10.V14 (antibody, V domains shown)
VH: QVQLQESGPGLVKPSETLSLTCTVSGGSISSNYAWNWIRQPPGKGLEWIGYINYSGYTNYNPSLKSRVTISRDTSKNQFSLKLSSVTAADTAVYYCATSYYGNSFIYWGQGTLVTVSS
VL: DIVMTQSPDSLAVSLGERATINCKSSQSLLNSGNQKNYLTWYQQKPGQPPKLLIYWASTRESGVPDRFSGSGSGTDFTLTISSLQAEDVAVYYCQNAYSFPWTFGQGTKVEIK
notes: Humanized; also called 18D10VLv1 + 18D10VHv4
B14: 18D10.V15 (antibody, V domains shown)
VH: QVQLQESGPGLVKPSETLSLTCTVSGGSISSNYAWNWIRQPPGKGLEWIGYINYSGNTAYNPSLKSRVTISRDTSKNQFSLKLSSVTAADTAVYYCATSYYGNSFIYWGQGTLVTVSS
VL: DIVMTQSPDSLAVSLGERATINCKSSQSLLNSGNQKNYLTWYQQKPGQPPKLLIYWASTRESGVPDRFSGSGSGTDFTLTISSLQAEDVAVYYCQNAYSFPWTFGQGTKVEIK
notes: Humanized; also called 18D10VLv1 + 18D10VHv5
B15: 18D10.V16 (antibody, V domains shown)
VH: QVQLQESGPGLVKPSETLSLTCTVSGGSISSNYAWNWIRQPPGKGLEWIGYIYYSGNTNYNPSLKSRVTISRDTSKNQFSLKLSSVTAADTAVYYCATSYYGNSFIYWGQGTLVTVSS
VL: DIVMTQSPDSLAVSLGERATINCKSSQSLLNSGNQKNYLTWYQQKPGQPPKLLIYWASTRESGVPDRFSGSGSGTDFTLTISSLQAEDVAVYYCQNAYSFPWTFGQGTKVEIK
notes: Humanized; also called 18D10VLv1 + 18D10VHv6
B16: 18D10.V21 (antibody, V domains shown)
VH: QVQLQESGPGLVKPSETLSLTCTVSGYSITSNYAWNWIRQPPGKGLEWIGYINYSGNTNYNPSLKSRVTISRDTSKNQFSLKLSSVTAADTAVYYCATSYYGNSFIYWGQGTLVTVSS
VL: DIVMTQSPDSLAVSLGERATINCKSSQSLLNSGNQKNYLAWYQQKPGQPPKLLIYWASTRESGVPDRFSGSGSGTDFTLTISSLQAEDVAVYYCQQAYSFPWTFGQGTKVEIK
notes: Humanized; also called 18D10VLv2 + 18D10VHv1
B17: 18D10.V22 (antibody, V domains shown)
VH: QVQLQESGPGLVKPSETLSLTCTVSGGSISSNYAWNWIRQPPGKGLEWMGYINYSGNTNYNPSLKSRITISRDTSKNQFSLKLSSVTAADTAVYYCATSYYGNSFIYWGQGTLVTVSS
VL: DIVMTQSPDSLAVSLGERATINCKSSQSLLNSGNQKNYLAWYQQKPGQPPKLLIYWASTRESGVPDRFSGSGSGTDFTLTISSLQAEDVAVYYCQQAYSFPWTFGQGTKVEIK
notes: Humanized; also called 18D10VLv2 + 18D10VHv2
B18: 18D10.V23 (antibody, V domains shown)
VH: QVQLQESGPGLVKPSETLSLTCTVSGGSISSNYAWNWIRQPPGKGLEWIGYINYSGNTNYNPSLKSRVTISRDTSKNQFSLKLSSVTAADTAVYYCATSYYGNSFIYWGQGTLVTVSS
VL: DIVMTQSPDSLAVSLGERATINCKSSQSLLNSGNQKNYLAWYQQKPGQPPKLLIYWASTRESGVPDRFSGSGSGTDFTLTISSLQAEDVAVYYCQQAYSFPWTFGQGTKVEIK
notes: Humanized; also called 18D10VLv2 + 18D10VHv3
B19: 18D10.V24 (antibody, V domains shown)
VH: QVQLQESGPGLVKPSETLSLTCTVSGGSISSNYAWNWIRQPPGKGLEWIGYINYSGYTNYNPSLKSRVTISRDTSKNQFSLKLSSVTAADTAVYYCATSYYGNSFIYWGQGTLVTVSS
VL: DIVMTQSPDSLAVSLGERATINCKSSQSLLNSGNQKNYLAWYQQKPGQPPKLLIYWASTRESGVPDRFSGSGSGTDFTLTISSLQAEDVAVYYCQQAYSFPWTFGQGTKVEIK
notes: Humanized; also called 18D10VLv2 + 18D10VHv4
B20: 18D10.V25 (antibody, V domains shown)
VH: QVQLQESGPGLVKPSETLSLTCTVSGGSISSNYAWNWIRQPPGKGLEWIGYINYSGNTAYNPSLKSRVTISRDTSKNQFSLKLSSVTAADTAVYYCATSYYGNSFIYWGQGTLVTVSS
VL: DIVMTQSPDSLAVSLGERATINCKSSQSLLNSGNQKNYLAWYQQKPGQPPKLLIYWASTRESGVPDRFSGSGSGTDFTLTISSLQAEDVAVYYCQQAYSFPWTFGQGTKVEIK
notes: Humanized; also called 18D10VLv2 + 18D10VHv5
B21: 18D10.V26 (antibody, V domains shown)
VH: QVQLQESGPGLVKPSETLSLTCTVSGGSISSNYAWNWIRQPPGKGLEWIGYIYYSGNTNYNPSLKSRVTISRDTSKNQFSLKLSSVTAADTAVYYCATSYYGNSFIYWGQGTLVTVSS
VL: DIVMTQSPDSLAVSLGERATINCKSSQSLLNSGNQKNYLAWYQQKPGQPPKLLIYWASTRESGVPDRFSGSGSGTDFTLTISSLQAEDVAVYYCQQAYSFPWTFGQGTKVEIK
notes: Humanized; also called 18D10VLv2 + 18D10VHv6

What follows are binders tested against T1, human Claudin 18.2 (assay: flow cytometry (iQue) on cells, antibody from 100 nM in 5-fold steps; cell line not named in Example 5).
Experimental: The cells at logarithmic growth phase were taken, blocked with 3% BSA for 30 minutes, plated at 5×10⁴ cells/100 μL into a U-shaped 96-well plate, centrifuged at 1100 rpm for 3 minutes, the supernatant was discarded, the cells were gently patted and loosed, 50 μL of antibody diluted according to the series was added to each well (antibody concentration starts from 100 nM, 5 times dilution in 8 series), incubated at 4° C. for 1 hour. After the incubation, 140 μL of 0.5% BSA was added to each well to wash 3 times, AF 647 APC anti-human secondary antibody was added with 30 μL/well and incubated at 4° C. for 40 minutes. After the incubation, 140 μL of 0.5% BSA was added to each well to wash 3 times, and finally resuspended each well with 50 μL PBS for iQue (Intellicyt, USA) detection (shown in Table 2).
In the case of B1, the EC50 is reported as 0.799 nM. B2 gave an EC50 of 1.43 nM. Work on B3 yielded an EC50 of 1.03 nM. Work on B4 yielded an EC50 of 0.822 nM. B5 showed an EC50 of 1.17 nM. Work on B6 yielded an EC50 of 2.06 nM. Work on B7 yielded an EC50 of 0.964 nM. For B8, the EC50 was 1.41 nM. Work on B9 yielded an EC50 of 0.646 nM. B10 showed an EC50 of 0.912 nM. Binder B11 has an EC50 of 1.13 nM. Binder B12 has an EC50 of 1.68 nM. B13 was tested, and the EC50 was 1.74 nM. Binder B14 has an EC50 of 2.69 nM. B15 gave an EC50 of 2.31 nM. Binder B16 has an EC50 of 1.07 nM. Work on B17 yielded an EC50 of 1.9 nM. Work on B18 yielded an EC50 of 0.982 nM. For B19, the EC50 was 1.93 nM. B20 was tested, and the EC50 was 1.26 nM. Binder B21 has an EC50 of 1.87 nM.
